Reference: patent US20220025021A1 (BETH ISRAEL DEACONESS MEDICAL CENTER, published 2022)

Key:
Experiment in all cases: cell-based or functional assay
[1] = target: HIV-1 Env of pseudovirus SC422661.8 (HIV-1)
[2] = target: HIV-1 Env of pseudovirus RHPA4259.7 (HIV-1)
[3] = target: HIV-1 Env of pseudovirus Du172.17 (HIV-1)
[4] = target: HIV-1 Env of pseudovirus BB1012-11.TC21 (HIV-1)
[5] = target: HIV-1 Env of pseudovirus CNE52 (HIV-1)
[6] = target: HIV-1 Env of pseudovirus 0260.v5.c36 (HIV-1)

Row | Binder | neutralization IC50 [1] [µg/mL] | neutralization IC80 [1] [µg/mL] | neutralization IC50 [2] [µg/mL] | neutralization IC80 [2] [µg/mL] | neutralization IC50 [3] [µg/mL] | neutralization IC80 [3] [µg/mL] | neutralization IC50 [4] [µg/mL] | neutralization IC80 [4] [µg/mL] | neutralization IC50 [5] [µg/mL] | neutralization IC80 [5] [µg/mL] | neutralization IC50 [6] [µg/mL] | neutralization IC80 [6] [µg/mL]
1 | MS-79 (antibody, V domains shown) VH: QVQLVQSGPEVRKPGTSVKVSCKAPGNTLKTYDLHWVRSVPGQGLQWMGWISHEGDKKVIVERFKAKVTITWDRSTNTAYLQLSGLTSGDTAVYYCAKGSKHRLRDYALYDDDGALNWAVDVDYLSNLEFWGQGTAVTVSS VL: DFVLTQSPHSLSVTPGESASISCKSSHSLIHGDRNNYLAWYVQKPGRSPQLLIYLASSRASGVPDRFSGSGSDKDFTLKISRVETEDVGTYYCMQGRESPWTFGQGTKVDIKR | 0.587 | > 25 | 0.221 | 0.792 | 7.28 | > 25 | 0.019 | 0.08 | 2.42 | > 25 | 0.028 | 0.159
2 | MS-80 (antibody, V domains shown) VH: QVQLVQSGPEVRKPGTSVKVSCKAPGNTLKTYDLHWVRSVPGQGLQWMGWISHEGDKKVIVERFKAKVTIDRDRSTNTAYLQLSGLTSGDTAVYYCAKGSKHRLRDYALYDDDGALNWAVDVDYLSNLEFWGQGTAVTVSS VL: DFVLTQSPHSLSVTPGESASISCKSSHSLIHGDRNNYLAWYVQKPGRSPQLLIYLASSRASGVPDRFSGSGSDKDFTLKISRVETEDVGTYYCMQGRESPWTFGQGTKVDIKR | 0.451 | > 25 | 0.267 | 1.24 | 15.2 | > 25 | 0.02 | 0.086 | 5.25 | > 25 | 0.041 | 0.321
3 | MS-85 (antibody, V domains shown) VH: QVQLVQSGPEVRKPGTSVKVSCKAPGNTLKTYDLHWVRSVPGQGLQWMGWISHEGDKKVIVERFKAKVTIDWDRSTNTAYLQLSGLTSGDTAVYYCAKGSKHRLRDYALYDDDGALNWAVDVDYLSNLEFWGQGTAVTVSS VL: DIVLTQSPHSLSVTPGESASISCKSSHSLIHGDRNNYLAWYVQKPGRSPQLLIYLASSRASGVPDRFSGSGSGTDFTLKISRVETEDVGTYYCMQGRESPWTFGQGTKVDIKR | 0.54 | 7.04 | 0.173 | 0.794 | 2.23 | 9.53 | 0.028 | 0.124 | 0.341 | 4.71 | 0.019 | 0.059
4 | MS-81 (antibody, V domains shown) VH: QVQLVQSGPEVRKPGTSVKVSCKAPGNTLKTYDLHWVRSVPGQGLQWMGWISHEGDKKVIVERFKAKVTIDWDRSTNTAYLELSGLTSGDTAVYYCAKGSKHRLRDYALYDDDGALNWAVDVDYLSNLEFWGQGTAVTVSS VL: DFVLTQSPHSLSVTPGESASISCKSSHSLIHGDRNNYLAWYVQKPGRSPQLLIYLASSRASGVPDRFSGSGSDKDFTLKISRVETEDVGTYYCMQGRESPWTFGQGTKVDIKR | 0.418 | 4.25 | 0.202 | 0.897 | 1.65 | 6.37 | 0.024 | 0.102 | 0.212 | 1.8 | 0.02 | 0.075
5 | MS-83 (antibody, V domains shown) VH: QVQLVQSGPEVRKPGTSVKVSCKAPGNTLKTYDLHWVRSVPGQGLQWMGWISHEGDKKVIVERFKAKVTIDWDRSTNTAYLQLSGLTSGDTAVYYCAKGSKHRLRDYALYDDEGALNWAVDVDYLSNLEFWGQGTAVTVSS VL: DFVLTQSPHSLSVTPGESASISCKSSHSLIHGDRNNYLAWYVQKPGRSPQLLIYLASSRASGVPDRFSGSGSDKDFTLKISRVETEDVGTYYCMQGRESPWTFGQGTKVDIKR | 0.267 | 2.11 | 0.15 | 0.663 | 1.47 | 7.4 | 0.018 | 0.082 | 0.135 | 1.04 | 0.023 | 0.087
6 | MS-84 (antibody, V domains shown) VH: QVQLVQSGPEVRKPGTSVKVSCKAPGNTLKTYDLHWVRSVPGQGLQWMGWISHEGDKKVIVERFKAKVTIDWDRSTNTAYLQLSGLRSGDTAVYYCAKGSKHRLRDYALYDDDGALNWAVDVDYLSNLEFWGQGTAVTVSS VL: DFVLTQSPLSLPVTPGEPASISCKSSHSLIHGDRNNYLAWYVQKPGQSPQLLIYLASSRASGVPDRFSGSGSDKDFTLKISRVEAEDVGVYYCMQGRESPWTFGQGTKVDIKR | 0.192 | 1.37 | 0.175 | 0.773 | 1.64 | 6.55 | 0.019 | 0.085 | 0.092 | 0.83 | 0.016 | 0.062
7 | MS-82 (antibody, V domains shown) VH: QVQLVQSGPEVRKPGTSVKVSCKAPGNTLKTYDLHWVRSVPGQGLQWMGWISHEGDKKVIVERFKAKVTIDWDRSTNTAYLQLSGLRSGDTAVYYCAKGSKHRLRDYALYDDDGALNWAVDVDYLSNLEFWGQGTAVTVSS VL: DFVLTQSPHSLSVTPGESASISCKSSHSLIHGDRNNYLAWYVQKPGRSPQLLIYLASSRASGVPDRFSGSGSDKDFTLKISRVETEDVGTYYCMQGRESPWTFGQGTKVDIKR | 0.387 | 3.29 | 0.192 | 0.672 | 1.88 | 7 | 0.023 | 0.108 | 0.206 | 1.18 | 0.016 | 0.051
8 | MS-86 (antibody) VH: not shown VL: DFVLTQSPHSLSVTPGESASISCKSSHSLIHGDRNNYLAWYVQKPGRSPQLLIYLASSRASGVPDRFSGSGSDKDFTLKISRVETEDVGTYYCMQGRESPWTFGQGTKVDIKRTVAAPSVFIFPPSDEQLKSGTASVVCLLNNFYPREAKVQWKVDNALQSGNSQESVTEQDSKDSTYSLSSTLTLSKADYEKHKVYACEVTHQGLSSPVTKSFNRGEC | 1.2 | > 25 | 0.305 | 1.1 | 4.94 | 18.8 | 0.048 | 0.159 | 1.46 | 13.3 | 0.036 | 0.191
